Data as given in patent publication US8709811B2, “Materials and methods for synthesis of a flavor and aroma volatile in plants” (University of Florida Research Foundation, Inc., priority 2003, dated 2014).
“Also recorded” adds a separate entry of the source.

How the values were obtained:
phenylalanine = assay: Phenylalanine decarboxylase expression in E. coli: phenethylamine production in media containing phenylalanine, GC; assay type: cell-based; settings: grown in the presence of phenylalanine, confirmed by GC-MS
From the text: The full-length aromatic amino acid decarboxylase cDNAs were cloned by sequencing putative clones from the TIGR database. Following sequence analysis the full-length coding sequence was obtained by PCR, and cloned into vector pENTR/D-TOPO. The coding region was then cloned into vector pDEST15 containing a GST tag (Invitrogen) by recombination, and transformed into E. coli strain […] (Invitrogen) for inducible protein expression. Production of the recombinant protein was confirmed by protein blotting with anti-GST antibodies. Enzyme activity was determined by growing E. coli strains expressing the aromatic amino acid decarboxylases in media containing 19.4 mM phenylalanine. Volatile compounds were extracted from the cultures using an equal volume of hexanes. Extracts were concentrated and analyzed by gas chromatography on an Agilent DB-5 column on an Agilent 6890N gas chromatograph. Identification of phenethylamine was confirmed by GC-mass spectrometry as described by Schmelz et al. (2001).
The coding regions of the full-length aromatic amino acid decarboxylases were cloned in vector pDEST15 with a GST tag and transformed into E. coli BL21-SI cells for inducible expression. The production of recombinant proteins in E. coli was confirmed by Western blotting with an anti-GST antibody. […] Volatile compounds were extracted from these cultures and analyzed by gas chromatography. […]

[1] = In vitro phenylethanol dehydrogenase activity of E. coli expressed petunia homolog; assay type: biochemical; settings: E. coli expressed protein
From the text: FIGS. 14A-14B show the nucleotide (SEQ ID NO: 10) and amino acid sequence (SEQ ID NO: 11) of a petunia homolog of the tomato phenylethanol dehydrogenase.

B1: cLEC75E21: tomato phenylalanine decarboxylase cLEC75E21, SEQ ID NO: 5, encoded by SEQ ID NO: 4 (protein, listed as Lycopersicon esculentum)
chain: MGSLSFEKDFEPSAITPRGLAPPGLIVNGDFGEMMRLKVSSTPTTPRKNLNLSVTEPGKNDGPSLDCTLMNYIDTLTQRINYHIGYPVNICYEHYANLAPLLQFHLNNCGDPFLQNTVDFHSKDFEVAVLNWFADLWEIERDQYWGYVTNGGTEGNLHGILVGRELFPDGILYASKDSHYSVAKAAMMYRMDFENINASINGEIDYSDLKVKLLQNKGKPAIINVTIGTTFKGAVDDLDVILQILEECGYTRDQFYIHCDAALNGLIIPFIKNMITFKKPIGSVTISGHKFLGCPMPCGVQITRKSYINNLSRRVEYIASVDATISGSRNGLTPIFLWYSISAKGQIGFQKDVKRCFDNAKYLKDRLQQAGISVMLNELSIIVVLERPRDHEFVRRWQLSCVRDMAHVIVMPGITRETLDGFINDLLQQRKKWYQDGRISPPCVANDIGAQNCACSYHKIDYIIA
**Q.** Which “Production of phenethylamine by E. coli cultures expressing the decarboxylase” value (phenylalanine) does the source give for B1 here?
**A.** Its value is “produced a compound with the same retention time as phenethylamine; also recorded: produce phenethylamine”.

B2: petunia homolog of the tomato phenylethanol dehydrogenase: petunia 2-phenylethanol dehydrogenase, SEQ ID NO: 11, encoded by SEQ ID NO: 10 (protein, listed as Lycopersicon esculentum)
chain: MSSVAATKTVCVTGASGYIASWLVNFLLQRGYTVKASVRDPNDPKKTQHLISLGGAKERLHLFKANLLEEGSFDAVVDGCEGVFHTASPFYYSVTDPQAELLDPAVKGTLNLLGSCAKAPSVKRVVLTSSIAAVAYSGEPRTPEVVVDESWWTSPDYCREKQLWYVLSKTLAEDAAWKFVKEKGIDMVAINPAMVIGPLLQPTLNTSSAAVLNLVNGAETYPNATFGWVNVKDVANAHILAFENPSANGRYLMVERVAHYSDILKILRELYPTMRLPEKCADDNPLMQNYQVSKERAKSLGVEFTPLEESIKETVESLKEKKFFGGSSAM
**Q.** For B2, which “Phenylethanol dehydrogenase activity in vitro” value [1] is on record?
**A.** Its value is “exhibits phenylethanol dehydrogenase activity”.

B3: cLEC73K23: tomato phenylalanine decarboxylase cLEC73K23, SEQ ID NO: 7, encoded by SEQ ID NO: 6 (protein, listed as Lycopersicon esculentum)
chain: MGSLSLEMDFEPSPMTPRSLAAMTPRSLARRRLFPNVDNKKQKMAQPGAGPRKNLELEVMEPALKNDGPSLDTILVNYLDTLTQRVNYHLGYPVNICYDHYATLAPLLQFHLNNCGDPFLQNTVDFHSKDFEVAVLNWFAKLWEIEKDQYWGYVTNGGTEGNLHGILLGRELLPEGILYASKDSHYSVFKAARMYRMDSETINTSVNGEMDYSDLRAKLLQNKDKPAIINVTIGTTFKGAIDDLDVILEILKECGYSQDRFYIHCDAALCGLMTPFINNMISFKKPIGSVTISGHKFLGCPMPCGVQITRKSYINNLSTNVEYIASVDATISGSRNGLTPIFLWYSLSAKGQVGLQKDVKRCLDNAKYLKDRLQQAGISVMLNELSIIVVLERPRDHEFVRRWQLSCVKDMAHVIVMPGITREMLDNFMSELVQQRKVWYQNGKTDPPCVGEDIGAQNCACSYHKIDYICP
**Q.** For B3, which “Production of phenethylamine by E. coli cultures expressing the decarboxylase” value (phenylalanine) is on record?
**A.** Its value is “produced a compound with the same retention time as phenethylamine; also recorded: produce phenethylamine”.
